Reference: patent US20250093368A1 (BEIJING INSTITUTE OF HEART LUNG AND BLOOD VESSEL DISEASES, published 2025)
Numbering of substitutions follows the chain as printed. In names and notes the source's numbering stands.

T1: commercial S100A8/S100A9 Heterodimer (R&D) heterodimer protein (UniProt P05109 1-93; P06702 2-114, limits assumed)
T1 construct: Bought, purity >95%; also called S100A8/S100A9 heterodimer protein standard; commercial S100A8/S100A9 protein
T1 sequence (looked up) 1: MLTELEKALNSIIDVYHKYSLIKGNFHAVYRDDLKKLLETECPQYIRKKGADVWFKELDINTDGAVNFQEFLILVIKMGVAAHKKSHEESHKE
T1 sequence (looked up) 2: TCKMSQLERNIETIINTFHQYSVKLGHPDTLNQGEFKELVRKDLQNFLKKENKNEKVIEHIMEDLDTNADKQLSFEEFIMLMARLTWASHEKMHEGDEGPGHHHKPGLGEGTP

T2: S100A8 protein in patient sera (human, UniProt P05109 1-93)
T2 construct: Native serum protein; also called S100A8 signal in patient serum
T2 sequence (looked up): T1 sequence (looked up) 1

T3: S100A8 recombinant protein (pET-28a-S100A8 (1-93 aa) expressed protein) (human, UniProt P05109 1-93)
T3 construct: Immunogen and ELISA screening antigen, expressed from pET-28a; also called S100A8 antigen; expressed S100A8 antigen
T3 sequence: T1 sequence (looked up) 1

T4: commercial S100A8 protein (ab167749, Recombinant human MRP8 protein) (human, UniProt P05109 1-93)
T4 construct: Bought; also called commercial S100A8 antigen
T4 sequence (looked up): T1 sequence (looked up) 1

T5: S100A9 protein in patient sera (human, UniProt P06702 2-114, limits assumed)
T5 construct: Native serum protein; also called S100A9 signal in patient serum
T5 sequence (looked up): T1 sequence (looked up) 2

T6: commercial S100A9 protein (ab95909, Recombinant Human S100A9 protein) (human, UniProt P06702 1-114)
T6 construct: Bought; also called commercial A9 protein
T6 sequence (looked up): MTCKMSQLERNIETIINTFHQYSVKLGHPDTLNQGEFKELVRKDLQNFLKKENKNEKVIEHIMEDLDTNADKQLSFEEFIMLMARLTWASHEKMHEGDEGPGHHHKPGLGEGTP

T7: S100A9 recombinant protein (pET-28a-S100A9 (1-114 aa) expressed protein) (human, UniProt P06702 1-114)
T7 construct: Immunogen and ELISA screening antigen, expressed from pET-28a; also called S100A9 antigen; expressed S100A9 antigen
T7 sequence: T6 sequence (looked up)

T8: S100A8/S100A9-1 recombinant protein (expression product from plasmid 5) (human, UniProt P05109 2-93; P06702 1-114)
T8 construct: also called S100A8/S100A9-1 heterodimer; S100A8/S100A9-1 (S100A9 mutant) heterodimer; not shown: T7-tag
T8 chain 1: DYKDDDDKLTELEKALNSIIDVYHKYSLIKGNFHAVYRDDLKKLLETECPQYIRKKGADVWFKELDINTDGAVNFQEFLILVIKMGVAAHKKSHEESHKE
T8 chain 2: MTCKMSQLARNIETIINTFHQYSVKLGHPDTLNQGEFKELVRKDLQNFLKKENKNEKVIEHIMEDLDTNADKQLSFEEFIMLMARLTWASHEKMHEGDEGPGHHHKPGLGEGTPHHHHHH

B1: 2C2 (antibody, V domains shown)
VH: QSVEESGGRLVTPGGSLTLTCTVSGFSLSSYFMIWVRQAPGKGLEYIGIHSDTGSTDYASWAKGRFTISKTSTTVDLKMTSLTASDTATYFCARDGGNDAYYYFNIWGPGTLVTVSS
VL: AYDMTQTPASVEVAVGGTVTINCQASQSISTALAWYQQKPGQPPKPLIYEASKLASGVPSRFKGSGSGTEFILTISDLECADAATYYCQQGASARNIASNVFGGGTEVVVKG
notes: Rabbit monoclonal IgG against S100A8 (rabbit E15229); Biotin-labeled when used as detecting antibody
B2: Flag tag - S100A8 (expression product from plasmid 1; also the S100A8 chain co-expressed from plasmid 5) (other)
chain: T8 chain 1
B3: 7C4 (antibody, V domains shown)
VH: QSVEESGGRLVTPGTPLTLTCTVSGIDLSSGWMNWVRQAPGGGLEWIGTINSGGSPYYARWAKGRFTLSTTSTTVDLKITSPTTEDTATYFCGSRDFWGPGTLVTVSS
VL: AQVLTQTASPVSAAVGGTVTINCQASQSVYNNNYLAWYQQKPGQPPKRLIYAASNLASGVSSRFKGSGSGTQFTLTISDLQCDDAATYYCSGGYDCDSADCSVFGGGTEVVVKG
notes: Rabbit monoclonal IgG against S100A9 (rabbit E16675); also called 7C4-HRP; 7C4 (biotin-labeled)
B4: 8A11 (antibody, V domains shown)
VH: B3 VH with G42K, T49V, G53Y, S55R, P56T, L68I, T70I
VL: B3 VL with G17S, N31K, A52S, N55T, L80V, S91G
notes: Rabbit monoclonal IgG against S100A9 (rabbit E16675); Biotin-labeled when used as detecting antibody; also called 8A11 (biotin-labeled)
B5: S100A9 - 6 x His tag (expression product from plasmid 2) (other)
chain: T8 chain 2 with A9E
notes: pET-28a, BamHI/HindIII
B6: S100A9-1 (E9A) - 6 x His tag (expression product from mutant plasmid 2) (other)
chain: T8 chain 2
notes: pET-28a, BamHI/HindIII; also called mutant S100A9
B7: T7-tag - S100A9-1 - 6 x His tag (S100A9-1 chain co-expressed from plasmid 4 and plasmid 5) (other)
chain: T8 chain 2
notes: Single chain of the co-expression constructs, written as a molecule of its own for the dimer formation results; also called mutant S100A9; not shown: T7-tag
B8: 3D8 (antibody, V domains shown)
VH: QSVEESGGRLVTPGTPLTLTCTVSGIDLSTNPMGWVRQAPGKGLEWIGIIFADTGEIYYATWAKGRFTISETSSTTVDLKITSPTAEDTATYFCVRGSPSSANIWGPGTLVTVSS
VL: AAVLTQTPSPVSAAVGGTVTISCQSSQSVYNNNWLGWYQQKPGQPPKLLIYRASTLASGVPSRFKGSGSGTQFTFTISDLECDDAATYYCAGTYRRNSDNGFGGGTEVVVKG
notes: as for B1
B9: 5H10 (antibody, V domains shown)
VH: B8 VH with K64R
VL: B8 VL with P61S, F75L, D79G
notes: Rabbit monoclonal IgG against S100A8 (rabbit E15229); Tested as B cell supernatant, LEM supernatant and purified recombinant antibody; biotin-labeled when used as detecting antibody; also called anti-S100A8 monoclonal antibody 5H10

Assays:
[1] = biological target: T1, commercial S100A8/S100A9 Heterodimer …; experiment: ELISA, LEM supernatant, heterodimer coated at 1 µg/mL
Text: The ELISA reaction conditions were as follows: [0196]

[2] = biological target: T2, S100A8 protein in patient sera; experiment: Dot Blot, B cell supernatant on patient sera
[3] = biological target: T3, S100A8 recombinant protein …; experiment: ELISA, B cell supernatant on expressed S100A8 antigen; positive = OD greater than 0.7
[4] = biological target: T4, commercial S100A8 protein (ab167749, …); experiment: ELISA, B cell supernatant on commercial S100A8 protein ab167749; positive = OD greater than 0.7
[5] = biological target: the molecule itself; experiment: SDS-PAGE of Flag-purified protein, homodimer band at 30 KDa
Text: (§1) (8) SDS-PAGE gel electrophoresis: the supernatant obtained after lysis and the purified protein were mixed with 6×Loading Buffer according to a volume ratio of 5:1 for sample preparation; and the prepared sample was subjected to SDS-PAGE gel electrophoresis together with bovine serum albumin (BSA, purchased from BioFroxx, Cat. No. 4240GR025) and Marker, wherein plasmid 1 and mutant plasmid 1 were the final samples purified by Flag-Tag, plasmid 2 and mutant plasmid 2 were the final samples purified by His-Tag, and plasmid 3 and plasmid 4 were the final samples purified by His-Tag and Flag-Tag. […] In panel C, the “Supernatant” refers to the supernatant obtained after centrifugation during first lysis, and the “Supernatant 2” refers to the supernatant obtained by performing second lysis treatment on the precipitate obtained after first lysis and centrifugation and then performing centrifugation.

[6] = biological target: T5, S100A9 protein in patient sera; experiment: Dot Blot, B cell supernatant on patient sera
[7] = biological target: T6, commercial S100A9 protein (ab95909, …); experiment: ELISA, LEM supernatant, antigen coated at 1 µg/mL
Text: (§2) The ELISA reaction conditions were as follows: [0207]

[8] = biological target: T7, S100A9 recombinant protein …; experiment: ELISA, LEM supernatant, antigen coated at 1 µg/mL
Text: as §2

[9] = biological target: T8, S100A8/S100A9-1 recombinant protein …; experiment: sandwich ELISA, 5H10 coated at 0.5 µg/mL, 7C4-HRP detecting
Method: (1) Experimental steps: [0270] standard: commercial R&D S100A8/S100A9 heterodimer protein, 2-fold gradient dilution from 40 ng/mL, with a total of 8 concentrations, lower limit of 0.625 ng, and boundary value of 40-0.625; [0271] reaction system: 96-well plate reaction system, laboratory buffer; [0272] coating antibody concentration: 5H10 (anti-S100A8 antibody), 0.5 μg/mL; [0273] detecting antibody concentration: 7C4-HRP (directly labeled), antibody dilution ratio of 1:20000 or 1:10000; [0274] TMB development: dilution ratio being 1:2, and color development time being 15 min.

[10] = biological target: the molecule itself; experiment: SDS-PAGE of His-purified protein, homodimer band at 34 KDa
Text: as §1

[11] = biological target: the molecule itself; experiment: SDS-PAGE of His-purified protein
Text: as §1

[12] = biological target: the molecule itself; experiment: SDS-PAGE of protein purified by His-Tag and Flag-Tag
Text: as §1
Except for the synthesized gene of interest (gene of interest S100A8+S100A9-1 in plasmid 5), the construction and expression and purification method for plasmid 5 was the same as that for plasmids 3 and 4, which was not described in detail herein.

[13] = biological target: B2; experiment: co-expression, purification by His-Tag then Flag-Tag, SDS-PAGE

Measured: binding result

B1
binds: [1] | [2] | [3] | [4]

B2
binds: [5]

B3
binds: [1] | [6] | [7] | [8] | [9]

B4
binds: [1] | [6] | [7] | [8]

B5
binds: [10]

B6
binds: [11]

B7
binds: [12] | [13]

B8
binds: [1] | [2] | [3] | [4]

B9
binds: [1] | [2] | [3] | [9] | [4]
